Reference: patent US20260167699A1 (Chugai, published 2026)

The binders below were run against T1, FcγRIIIa extracellular domain, C-terminal His tag (human, UniProt P08637 17-208) (assay: SPR, binding activity relative to GpH7-A5/GpH7-B3/GpL16-k0 (=100)).
T1 construct: extracellular domain; also called 3a
T1 sequence (P08637 other isoform, or with tags, fused parts or gaps): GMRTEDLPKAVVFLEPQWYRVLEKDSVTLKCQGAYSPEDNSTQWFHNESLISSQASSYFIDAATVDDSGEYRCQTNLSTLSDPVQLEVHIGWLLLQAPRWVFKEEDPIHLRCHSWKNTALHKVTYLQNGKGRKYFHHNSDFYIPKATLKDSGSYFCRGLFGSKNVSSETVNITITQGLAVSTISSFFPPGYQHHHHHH

Binder	He/Con 3a [%]
GpH7-A5/GpH7-B3 variant Y296_04F/GpL16-k0 (antibody, human IgG1, kappa, He Ab; copies: 1 + 1 + 2) heavy 1: not shown heavy 2: not shown light: DIVMTQSPLSLPVTPGEPASISCQASESLVHSNRNTYLHWYLQKPGQSPQLLIYKVSNRFSGVPDRFSGSGSGTDFTLKISRVEAEDVGVYYCSQNTHVPPTFGQGTKVEIERTVAAPSVFIFPPSDEQLKSGTASVVCLLNNFYPREAKVQWKVDNALQSGNSQESVTEQDSKDSTYSLSSTLTLSKADYEKHKVYACEVTHQGLSSPVTKSFNRGEC	79.5
GpH7-A5/GpH7-B3 variant Y296_06M/GpL16-k0 (antibody, human IgG1, kappa, He Ab; copies: 1 + 1 + 2) heavy 1: not shown heavy 2: not shown light: DIVMTQSPLSLPVTPGEPASISCQASESLVHSNRNTYLHWYLQKPGQSPQLLIYKVSNRFSGVPDRFSGSGSGTDFTLKISRVEAEDVGVYYCSQNTHVPPTFGQGTKVEIERTVAAPSVFIFPPSDEQLKSGTASVVCLLNNFYPREAKVQWKVDNALQSGNSQESVTEQDSKDSTYSLSSTLTLSKADYEKHKVYACEVTHQGLSSPVTKSFNRGEC	74.6
GpH7-A5/GpH7-B3 variant Y296_07I/GpL16-k0 (antibody, human IgG1, kappa, He Ab; copies: 1 + 1 + 2) heavy 1: not shown heavy 2: not shown light: DIVMTQSPLSLPVTPGEPASISCQASESLVHSNRNTYLHWYLQKPGQSPQLLIYKVSNRFSGVPDRFSGSGSGTDFTLKISRVEAEDVGVYYCSQNTHVPPTFGQGTKVEIERTVAAPSVFIFPPSDEQLKSGTASVVCLLNNFYPREAKVQWKVDNALQSGNSQESVTEQDSKDSTYSLSSTLTLSKADYEKHKVYACEVTHQGLSSPVTKSFNRGEC	75.8
GpH7-A5/GpH7-B3 variant Y296_08L/GpL16-k0 (antibody, human IgG1, kappa, He Ab; copies: 1 + 1 + 2) heavy 1: not shown heavy 2: not shown light: DIVMTQSPLSLPVTPGEPASISCQASESLVHSNRNTYLHWYLQKPGQSPQLLIYKVSNRFSGVPDRFSGSGSGTDFTLKISRVEAEDVGVYYCSQNTHVPPTFGQGTKVEIERTVAAPSVFIFPPSDEQLKSGTASVVCLLNNFYPREAKVQWKVDNALQSGNSQESVTEQDSKDSTYSLSSTLTLSKADYEKHKVYACEVTHQGLSSPVTKSFNRGEC	72.4
GpH7-A5/GpH7-B3 variant Y296_09D/GpL16-k0 (antibody, human IgG1, kappa, He Ab; copies: 1 + 1 + 2) heavy 1: not shown heavy 2: not shown light: DIVMTQSPLSLPVTPGEPASISCQASESLVHSNRNTYLHWYLQKPGQSPQLLIYKVSNRFSGVPDRFSGSGSGTDFTLKISRVEAEDVGVYYCSQNTHVPPTFGQGTKVEIERTVAAPSVFIFPPSDEQLKSGTASVVCLLNNFYPREAKVQWKVDNALQSGNSQESVTEQDSKDSTYSLSSTLTLSKADYEKHKVYACEVTHQGLSSPVTKSFNRGEC	89
GpH7-A5/GpH7-B3 variant Y296_10E/GpL16-k0 (antibody, human IgG1, kappa, He Ab; copies: 1 + 1 + 2) heavy 1: not shown heavy 2: not shown light: DIVMTQSPLSLPVTPGEPASISCQASESLVHSNRNTYLHWYLQKPGQSPQLLIYKVSNRFSGVPDRFSGSGSGTDFTLKISRVEAEDVGVYYCSQNTHVPPTFGQGTKVEIERTVAAPSVFIFPPSDEQLKSGTASVVCLLNNFYPREAKVQWKVDNALQSGNSQESVTEQDSKDSTYSLSSTLTLSKADYEKHKVYACEVTHQGLSSPVTKSFNRGEC	76.8
GpH7-A5/GpH7-B3 variant Y296_11K/GpL16-k0 (antibody, human IgG1, kappa, He Ab; copies: 1 + 1 + 2) heavy 1: not shown heavy 2: not shown light: DIVMTQSPLSLPVTPGEPASISCQASESLVHSNRNTYLHWYLQKPGQSPQLLIYKVSNRFSGVPDRFSGSGSGTDFTLKISRVEAEDVGVYYCSQNTHVPPTFGQGTKVEIERTVAAPSVFIFPPSDEQLKSGTASVVCLLNNFYPREAKVQWKVDNALQSGNSQESVTEQDSKDSTYSLSSTLTLSKADYEKHKVYACEVTHQGLSSPVTKSFNRGEC	53.3
GpH7-A5/GpH7-B3 variant Y296_12R/GpL16-k0 (antibody, human IgG1, kappa, He Ab; copies: 1 + 1 + 2) heavy 1: not shown heavy 2: not shown light: DIVMTQSPLSLPVTPGEPASISCQASESLVHSNRNTYLHWYLQKPGQSPQLLIYKVSNRFSGVPDRFSGSGSGTDFTLKISRVEAEDVGVYYCSQNTHVPPTFGQGTKVEIERTVAAPSVFIFPPSDEQLKSGTASVVCLLNNFYPREAKVQWKVDNALQSGNSQESVTEQDSKDSTYSLSSTLTLSKADYEKHKVYACEVTHQGLSSPVTKSFNRGEC	66.5
GpH7-A5/GpH7-B3 variant Y296_13S/GpL16-k0 (antibody, human IgG1, kappa, He Ab; copies: 1 + 1 + 2) heavy 1: not shown heavy 2: not shown light: DIVMTQSPLSLPVTPGEPASISCQASESLVHSNRNTYLHWYLQKPGQSPQLLIYKVSNRFSGVPDRFSGSGSGTDFTLKISRVEAEDVGVYYCSQNTHVPPTFGQGTKVEIERTVAAPSVFIFPPSDEQLKSGTASVVCLLNNFYPREAKVQWKVDNALQSGNSQESVTEQDSKDSTYSLSSTLTLSKADYEKHKVYACEVTHQGLSSPVTKSFNRGEC	58.1
GpH7-A5/GpH7-B3 variant Y296_14T/GpL16-k0 (antibody, human IgG1, kappa, He Ab; copies: 1 + 1 + 2) heavy 1: not shown heavy 2: not shown light: DIVMTQSPLSLPVTPGEPASISCQASESLVHSNRNTYLHWYLQKPGQSPQLLIYKVSNRFSGVPDRFSGSGSGTDFTLKISRVEAEDVGVYYCSQNTHVPPTFGQGTKVEIERTVAAPSVFIFPPSDEQLKSGTASVVCLLNNFYPREAKVQWKVDNALQSGNSQESVTEQDSKDSTYSLSSTLTLSKADYEKHKVYACEVTHQGLSSPVTKSFNRGEC	60.7
GpH7-A5/GpH7-B3 variant Y296_16H/GpL16-k0 (antibody, human IgG1, kappa, He Ab; copies: 1 + 1 + 2) heavy 1: not shown heavy 2: not shown light: DIVMTQSPLSLPVTPGEPASISCQASESLVHSNRNTYLHWYLQKPGQSPQLLIYKVSNRFSGVPDRFSGSGSGTDFTLKISRVEAEDVGVYYCSQNTHVPPTFGQGTKVEIERTVAAPSVFIFPPSDEQLKSGTASVVCLLNNFYPREAKVQWKVDNALQSGNSQESVTEQDSKDSTYSLSSTLTLSKADYEKHKVYACEVTHQGLSSPVTKSFNRGEC	69.1
GpH7-A5/GpH7-B3 variant Y296_18N/GpL16-k0 (antibody, human IgG1, kappa, He Ab; copies: 1 + 1 + 2) heavy 1: not shown heavy 2: not shown light: DIVMTQSPLSLPVTPGEPASISCQASESLVHSNRNTYLHWYLQKPGQSPQLLIYKVSNRFSGVPDRFSGSGSGTDFTLKISRVEAEDVGVYYCSQNTHVPPTFGQGTKVEIERTVAAPSVFIFPPSDEQLKSGTASVVCLLNNFYPREAKVQWKVDNALQSGNSQESVTEQDSKDSTYSLSSTLTLSKADYEKHKVYACEVTHQGLSSPVTKSFNRGEC	67.9
GpH7-A5/GpH7-B3 variant Y296_19Q/GpL16-k0 (antibody, human IgG1, kappa, He Ab; copies: 1 + 1 + 2) heavy 1: not shown heavy 2: not shown light: DIVMTQSPLSLPVTPGEPASISCQASESLVHSNRNTYLHWYLQKPGQSPQLLIYKVSNRFSGVPDRFSGSGSGTDFTLKISRVEAEDVGVYYCSQNTHVPPTFGQGTKVEIERTVAAPSVFIFPPSDEQLKSGTASVVCLLNNFYPREAKVQWKVDNALQSGNSQESVTEQDSKDSTYSLSSTLTLSKADYEKHKVYACEVTHQGLSSPVTKSFNRGEC	71.4
GpH7-A5/GpH7-B3 variant Y296_20W/GpL16-k0 (antibody, human IgG1, kappa, He Ab; copies: 1 + 1 + 2) heavy 1: not shown heavy 2: not shown light: DIVMTQSPLSLPVTPGEPASISCQASESLVHSNRNTYLHWYLQKPGQSPQLLIYKVSNRFSGVPDRFSGSGSGTDFTLKISRVEAEDVGVYYCSQNTHVPPTFGQGTKVEIERTVAAPSVFIFPPSDEQLKSGTASVVCLLNNFYPREAKVQWKVDNALQSGNSQESVTEQDSKDSTYSLSSTLTLSKADYEKHKVYACEVTHQGLSSPVTKSFNRGEC	127
GpH7-A5/GpH7-B3 variant Y300_01G/GpL16-k0 (antibody, human IgG1, kappa, He Ab; copies: 1 + 1 + 2) heavy 1: not shown heavy 2: not shown light: DIVMTQSPLSLPVTPGEPASISCQASESLVHSNRNTYLHWYLQKPGQSPQLLIYKVSNRFSGVPDRFSGSGSGTDFTLKISRVEAEDVGVYYCSQNTHVPPTFGQGTKVEIERTVAAPSVFIFPPSDEQLKSGTASVVCLLNNFYPREAKVQWKVDNALQSGNSQESVTEQDSKDSTYSLSSTLTLSKADYEKHKVYACEVTHQGLSSPVTKSFNRGEC	88.6
GpH7-A5/GpH7-B3 variant Y300_02A/GpL16-k0 (antibody, human IgG1, kappa, He Ab; copies: 1 + 1 + 2) heavy 1: not shown heavy 2: not shown light: DIVMTQSPLSLPVTPGEPASISCQASESLVHSNRNTYLHWYLQKPGQSPQLLIYKVSNRFSGVPDRFSGSGSGTDFTLKISRVEAEDVGVYYCSQNTHVPPTFGQGTKVEIERTVAAPSVFIFPPSDEQLKSGTASVVCLLNNFYPREAKVQWKVDNALQSGNSQESVTEQDSKDSTYSLSSTLTLSKADYEKHKVYACEVTHQGLSSPVTKSFNRGEC	88.1
GpH7-A5/GpH7-B3 variant Y300_03V/GpL16-k0 (antibody, human IgG1, kappa, He Ab; copies: 1 + 1 + 2) heavy 1: not shown heavy 2: not shown light: DIVMTQSPLSLPVTPGEPASISCQASESLVHSNRNTYLHWYLQKPGQSPQLLIYKVSNRFSGVPDRFSGSGSGTDFTLKISRVEAEDVGVYYCSQNTHVPPTFGQGTKVEIERTVAAPSVFIFPPSDEQLKSGTASVVCLLNNFYPREAKVQWKVDNALQSGNSQESVTEQDSKDSTYSLSSTLTLSKADYEKHKVYACEVTHQGLSSPVTKSFNRGEC	83.8
GpH7-A5/GpH7-B3 variant Y300_04F/GpL16-k0 (antibody, human IgG1, kappa, He Ab; copies: 1 + 1 + 2) heavy 1: not shown heavy 2: not shown light: DIVMTQSPLSLPVTPGEPASISCQASESLVHSNRNTYLHWYLQKPGQSPQLLIYKVSNRFSGVPDRFSGSGSGTDFTLKISRVEAEDVGVYYCSQNTHVPPTFGQGTKVEIERTVAAPSVFIFPPSDEQLKSGTASVVCLLNNFYPREAKVQWKVDNALQSGNSQESVTEQDSKDSTYSLSSTLTLSKADYEKHKVYACEVTHQGLSSPVTKSFNRGEC	100
GpH7-A5/GpH7-B3 variant Y300_06M/GpL16-k0 (antibody, human IgG1, kappa, He Ab; copies: 1 + 1 + 2) heavy 1: not shown heavy 2: not shown light: DIVMTQSPLSLPVTPGEPASISCQASESLVHSNRNTYLHWYLQKPGQSPQLLIYKVSNRFSGVPDRFSGSGSGTDFTLKISRVEAEDVGVYYCSQNTHVPPTFGQGTKVEIERTVAAPSVFIFPPSDEQLKSGTASVVCLLNNFYPREAKVQWKVDNALQSGNSQESVTEQDSKDSTYSLSSTLTLSKADYEKHKVYACEVTHQGLSSPVTKSFNRGEC	106
GpH7-A5/GpH7-B3 variant Y300_07I/GpL16-k0 (antibody, human IgG1, kappa, He Ab; copies: 1 + 1 + 2) heavy 1: not shown heavy 2: not shown light: DIVMTQSPLSLPVTPGEPASISCQASESLVHSNRNTYLHWYLQKPGQSPQLLIYKVSNRFSGVPDRFSGSGSGTDFTLKISRVEAEDVGVYYCSQNTHVPPTFGQGTKVEIERTVAAPSVFIFPPSDEQLKSGTASVVCLLNNFYPREAKVQWKVDNALQSGNSQESVTEQDSKDSTYSLSSTLTLSKADYEKHKVYACEVTHQGLSSPVTKSFNRGEC	103
GpH7-A5/GpH7-B3 variant Y300_08L/GpL16-k0 (antibody, human IgG1, kappa, He Ab; copies: 1 + 1 + 2) heavy 1: not shown heavy 2: not shown light: DIVMTQSPLSLPVTPGEPASISCQASESLVHSNRNTYLHWYLQKPGQSPQLLIYKVSNRFSGVPDRFSGSGSGTDFTLKISRVEAEDVGVYYCSQNTHVPPTFGQGTKVEIERTVAAPSVFIFPPSDEQLKSGTASVVCLLNNFYPREAKVQWKVDNALQSGNSQESVTEQDSKDSTYSLSSTLTLSKADYEKHKVYACEVTHQGLSSPVTKSFNRGEC	114
GpH7-A5/GpH7-B3 variant Y300_09D/GpL16-k0 (antibody, human IgG1, kappa, He Ab; copies: 1 + 1 + 2) heavy 1: not shown heavy 2: not shown light: DIVMTQSPLSLPVTPGEPASISCQASESLVHSNRNTYLHWYLQKPGQSPQLLIYKVSNRFSGVPDRFSGSGSGTDFTLKISRVEAEDVGVYYCSQNTHVPPTFGQGTKVEIERTVAAPSVFIFPPSDEQLKSGTASVVCLLNNFYPREAKVQWKVDNALQSGNSQESVTEQDSKDSTYSLSSTLTLSKADYEKHKVYACEVTHQGLSSPVTKSFNRGEC	104
